Laboratory results as given in patent US20150079112A1 (SAMSUNG ELECTRONICS, published 2015).

Columns and labels:
[1] = target: T1, Ang2 protein (R&D systems) (human, UniProt O15123 19-496); test: cell-based or functional assay
T1 sequence: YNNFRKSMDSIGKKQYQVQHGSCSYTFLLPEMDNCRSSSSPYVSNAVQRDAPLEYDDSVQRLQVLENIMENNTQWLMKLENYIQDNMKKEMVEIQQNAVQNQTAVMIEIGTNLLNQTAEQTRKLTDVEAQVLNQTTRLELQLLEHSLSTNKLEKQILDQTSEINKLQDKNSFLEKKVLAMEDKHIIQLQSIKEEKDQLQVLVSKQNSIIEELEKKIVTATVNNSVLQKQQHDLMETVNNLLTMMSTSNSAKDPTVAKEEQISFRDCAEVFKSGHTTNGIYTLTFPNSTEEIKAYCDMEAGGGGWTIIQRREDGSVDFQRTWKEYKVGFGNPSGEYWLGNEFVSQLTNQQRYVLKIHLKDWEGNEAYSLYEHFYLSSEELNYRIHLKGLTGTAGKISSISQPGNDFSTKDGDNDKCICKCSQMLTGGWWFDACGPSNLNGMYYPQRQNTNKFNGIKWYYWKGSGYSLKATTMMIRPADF

[2] = target: mutant Ang2 protein, A449 substituted with alanine, FLAG-tagged at its N-terminal (human) (UniProt O15123); test: ELISA, coated antibody 1000 nM, 250 ng FLAG-tagged mutant Ang2, anti-FLAG-HRP, OD450
BSA = target: T2, BSA (bovine, UniProt P02769); test: ELISA: coated BSA, 10D6 2 µg/ml with or without FLAG-Ang2, detected with anti-mouse IgG-HRP (OD450)
T2 construct: also called Bovine serum albumin; BSA (Sigma)
Procedure: A 96-well MaxiSorp™ flat-bottom plate (Nunc) was coated with 4 ug/ml of Tie2-Fc (R&D systems) or BSA (Sigma). Then, the plate was washed five times with 0.05% (v/v) Tween-20-containing PBS (Phosphate Buffer Saline) and blocked with 1% (v/v) BSA (Bovine serum albumin; Sigma)-containing PBS at a room temperature for 2 hours. 0.25 ug/ml of Ang2 and 2 ug/ml of antibody 10D6 were added to each well of the plate, which was allowed to react at a room temperature for 2 hours and then washed five times with PBST. After that, an anti-mouse IgG antibody (Sigma) conjugated with HRP diluted in 1% (v/v) BSA-containing PBS at a ratio of 1:5,000 (v/v) was added in an amount of 100 ul to each well to react at a room temperature for 1 hour and then, the plate was washed five times with PBST. Lastly, 100 ul (microliter) of TMB substrate (Cell Signaling) was added to each well of the plate to induce color development for 3 min. and then, the reaction was ceased by the addition of 100 ul of Stop solution (Cell Signaling) and OD450 values were measured on a plate reader (Molecular Devices).

[3] = target: T3, recombinant hAng2 (C-His, R&D Systems) (human, UniProt O15123 19-496); test: SPR, BIAcore T100; hAng2 (C-His) captured on anti-His antibody on a CM5 chip, antibody flowed from 100 nM in twofold dilutions
T3 construct: also called human Ang2 protein
T3 sequence: T1 sequence
Procedure: The binding affinity of the above antibody to human Ang2 protein was measured by an SPR method using a BIAcore T100 (GE Healthcare). The SPR method uses refractive index change of light which passes a sensor chip according to the state of materials coated onto the sensor chip, and if an antigen or an antibody is flowed onto a chip coated with the antigen or antibody, it causes changes in refractive index due to their binding and Kd values are thus calculated from the measured values.
First, anti-His antibody was immobilized on a CM5 sensor chip (GE healthcare) up to 8,000 RU levels using a pH 5.0 acetate solution and an amine coupling kit (GE Healthcare). 6 μg/ml of a recombinant hAng2 (C-His, R&D Systems) protein was flowed onto the chip to be captured at 100 to 200 RU levels.

T2 sequence (P02769 25-607 limits assumed): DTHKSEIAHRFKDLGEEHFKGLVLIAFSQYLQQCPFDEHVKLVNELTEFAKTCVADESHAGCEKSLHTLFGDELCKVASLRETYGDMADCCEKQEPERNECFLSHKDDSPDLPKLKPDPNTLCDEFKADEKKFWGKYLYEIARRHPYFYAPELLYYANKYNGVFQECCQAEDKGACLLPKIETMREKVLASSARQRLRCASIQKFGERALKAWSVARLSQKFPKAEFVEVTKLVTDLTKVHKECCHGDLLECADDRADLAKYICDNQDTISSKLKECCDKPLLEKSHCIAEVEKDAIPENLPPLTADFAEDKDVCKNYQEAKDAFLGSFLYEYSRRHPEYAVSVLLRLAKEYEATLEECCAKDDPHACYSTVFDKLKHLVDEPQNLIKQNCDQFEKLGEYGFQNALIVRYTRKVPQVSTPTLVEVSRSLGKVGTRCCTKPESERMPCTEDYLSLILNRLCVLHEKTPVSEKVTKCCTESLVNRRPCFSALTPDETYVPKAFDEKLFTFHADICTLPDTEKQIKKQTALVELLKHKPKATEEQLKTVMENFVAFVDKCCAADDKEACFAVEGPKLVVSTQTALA

B1: SAIT-ANG2-AB-m10D6 (antibody, V domains shown)
VH: DVQLQESGPGLVKPSQSLSLTCTVTGYSITSDYAWNWIRQFPGNKLEWMGYINYSGNTDYNPSLKSRSSITRDTSKNQFFLQLNSVTTGDTATYYCARGNFEGAMDYWGQGTSVTVSS
VL: SIVMTQTPKFLLVSAGDRVTITCKASQSVSNDVAWYQQKPGQSPKLLIYYASNRYPGVPDRFTGSGYGTDFTFTISTVQAEDLAVYFCQQDYSSPWTFGGGTKLEIK
notes: also called antibody 10D6; anti-Ang2 antibody (10D6)
With B1 as the binder, how does the “Tie2 phosphorylation effect relative to control antibody RG” value [1] read?
Its value is ~8.6 fold.

And the “Tie2 phosphorylation level (pTyr/Tie2 ratio), HUVEC, 60 nM antibody with Ang2” value [1]?
Its value is 180%.

What about the binding affinity (%) with mutant Ang2 against the binding affinity with the native Ang2 [2] of the same binder?
The binding affinity (%) with mutant Ang2 against the binding affinity with the native Ang2 was 97.9%.

Does B1 bind (BSA)?
Result: no binding (tested: 2 µg/ml)

What about the Kd [3] of the same binder?
Its Kd is 8 nM.
